From patent publication US20250277030A1, “ANTI-NAPI2B ANTIBODIES AND METHODS OF USE” (Zymeworks BC Inc., priority 2022, published 2025)

Legend:
[1] = Capillary isoelectric focusing (cIEF); assay type: physicochemical; conditions: main isoform; 0.5 mg/mL
Experimental: The isoelectric point was measured by capillary isoelectric focusing (cIEF), the propensity for self-aggregation was measured by Affinity-capture self-interaction nanoparticle spectroscopy (AC-SINS) and non-specific binding was measured by NS-ELISA, as described below.
cIEF was carried out using Maurice C. (ProteinSimple®) system, System Suitability Kit and Method Development Kit. System suitability standard, fluorescence calibration standard, cartridge and samples were prepared according to vendor's recommendations. The capillary was automatically calibrated with a fluorescence standard preconditioned with Maurice cIEF System Suitability Kit to ensure the capillary was functioning properly. The antibody samples were diluted to a concentration of 0.5 mg/mL in a final volume of 40 μL in Gibco™ Distilled Water, and mixed Maurice cIEF Method Development Kit Samples. The samples were then vortexed, centrifuged and the supernatant pipetted into individual wells of a 96-well plate. All electropherograms were detected with UV absorbance at 280 nm. All data analyses were performed using vendor software Compass for iCE (ProteinSimple®).

HCC-78 cells = assay: Internalization by flow cytometry in HCC-78 cells; assay type: cell-based, human; conditions: antibody 10 nM
Experimental: Briefly, antibodies were fluorescently labeled by coupling to a Fab fragment AF488 conjugate targeting anti-Human IgG Fe (Jackson Immuno Research Labs, West Grove, PA; Cat. No. 109-547-008) at a 1:1 molar ratio in PBS pH 7.4 (Thermo Fisher Scientific, Waltham, MA; Cat. No. 10010-023), for 24 hours at 4° C. Cells were seeded at 50,000 cells/well in RPMI 1640, ATCC modification (Thermo Fisher Scientific, Waltham, MA) supplemented with 10% fetal bovine serum (Thermo Fisher Scientific, Waltham, MA) in 48-well plates and incubated overnight under standard culturing conditions (37° C./5% CO2) to allow attachment. […] Following incubation, cells were dissociated, washed, and surface AF488 fluorescence was quenched using an anti-AF488 antibody (Life Technologies, Carlsbad, CA; Cat. No. A-11094) at 100 nM for 30 minutes at 4° C. […] (internalized fluorescence) was detected by flow cytometry on a BD LSRFortessa™ Cell Analyzer (BD Biosciences, Franklin Lake, NJ) with 1,000 minimum events collected per well. The AF488/FITC-A GeoMean (fluorescence signal geometric mean, proportional to anti-Human Fab AF488 labelling) was calculated for the live single cell population using FlowJo™ Version 10.8.1 (BD Biosciences, Franklin Lake, NJ) and plotted using GraphPad Prism Version 9 (GraphPad Software, San Diego, CA).

human NaPi2b = target: T1, human NaPi2b (Homo sapiens, UniProt O95436); assay: Flow cytometry binding to HEK293-6e cells transfected with human NaPi2b (Example 5); conditions: transfected HEK293-6e cells, 18-24 hours at 4° C.
T1 construct: host or cells: HEK293-6e
T1 sequence (O95436 1-690): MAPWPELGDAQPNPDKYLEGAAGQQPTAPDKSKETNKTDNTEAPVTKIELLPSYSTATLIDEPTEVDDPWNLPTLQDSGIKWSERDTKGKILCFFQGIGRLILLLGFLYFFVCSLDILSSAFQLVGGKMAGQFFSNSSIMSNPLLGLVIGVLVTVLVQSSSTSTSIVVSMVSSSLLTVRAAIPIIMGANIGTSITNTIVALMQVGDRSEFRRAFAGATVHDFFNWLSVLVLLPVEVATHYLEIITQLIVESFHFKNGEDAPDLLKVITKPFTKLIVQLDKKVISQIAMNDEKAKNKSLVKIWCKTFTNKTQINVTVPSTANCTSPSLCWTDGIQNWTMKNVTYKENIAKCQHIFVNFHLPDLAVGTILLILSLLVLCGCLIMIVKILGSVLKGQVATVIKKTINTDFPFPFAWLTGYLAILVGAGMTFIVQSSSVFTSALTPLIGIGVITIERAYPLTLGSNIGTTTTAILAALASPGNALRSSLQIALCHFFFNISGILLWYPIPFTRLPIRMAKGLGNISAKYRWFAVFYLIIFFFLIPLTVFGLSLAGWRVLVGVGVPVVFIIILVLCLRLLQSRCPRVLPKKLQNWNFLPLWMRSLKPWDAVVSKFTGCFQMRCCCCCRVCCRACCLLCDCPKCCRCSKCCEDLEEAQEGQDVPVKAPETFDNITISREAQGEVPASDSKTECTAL
Experimental: The binding cross-reactivity of humanized antibody variant v29456 to human, cynomolgus and mouse NaPi2b was assessed by flow cytometry using HEK293-6e transfected cells.
Briefly, HEK293-6e cells were transfected for ˜24 hours to transiently express human NaPi2b, cynomolgus or mouse NaPi2b, at 1 μg of DNA per 1 million cells. Following transfection, 50,000 cells per well were seeded in V-bottom 96-well plates and incubated with 200 nM of primary antibody for 18-24 hours at 4° C. to prevent internalization. Post-incubation, cells were washed and stained with anti-Human IgG Fc AF647 conjugate (Jackson Immuno Research Labs, West Grove, PA, Cat. No. 109-605-098, Lot. No. 124868) at 4° C. for 1 hour. Following staining and washing, fluorescence was detected by flow cytometry on BD LSRFortessa™ Cell Analyzer (BD Biosciences, Franklin Lake, NJ) with 10,000 minimum events collected per well. The AF647/APC-A GeoMean (fluorescence signal geometric mean, proportional to anti-Human AF647 binding) was calculated for the live singlet cell population for each primary antibody using FlowJo™ v8 software (BD Biosciences, Franklin Lake, NJ). The Bmax and Kd of each primary antibody were calculated using GraphPad Prism Version 9 (GraphPad Software, San Diego, CA)

B1: v29456: humanized anti-NaPi2b IgG1/kappa antibody H1L2; VH SEQ ID NO:24, VL SEQ ID NO:29 (antibody, V domains shown)
VH: QVQLVQSGAEVKKPGASVKVSCKASGFTFTSYNVHWVRQAPGQGLEWMGAISPGNGDLSYAQKFQGRVTMTRDTSTSTVYMELSSLRSEDTAVYYCARGRTGMGAVDYWGQGTLVTVSS
VL: DVQMTQSPSSLSASVGDRVTITCRASQDVYSYLNWYQQKPGKAVKLLIYYTSRLQSGVPSRFSGSGSGTDYTLTISSLQPEDFATYYCQQYNIFPWTFGQGTKLEIK
modifications: v29452, v29456, v29460 VH (H1); v29453, v29454, v29455, v29456 VL (L2)
cIEF pI [1]: 8.53 | Internalized Fluorescence Fold-Over Palivizumab (HCC-78 cells; HCC-78, 5 hrs): 25.3 fold | Internalized Fluorescence Fold-Over Palivizumab (HCC-78 cells; HCC-78, 24 hrs): 59.9 fold | Bmax (APC-A GeoMean), Hu NaPi2b (human NaPi2b): 2,538 APC-A GeoMean | Kd (human NaPi2b; highest antibody concentration 200 nM, read-out: Apparent Kd (nM), Hu NaPi2b): 5.2 nM
